Laboratory results from patent US6146878.

Columns and labels:
[1] = target: T1, TyrR (tyrosine repressor) (Erwinia herbicola) (UniProt Q9ZIB7); assay: cell_activity; conditions: beta-galactosidase reporter, M9 + 2 mM L-tyrosine, 37 C; 35.5 without tyrosine; indirect evidence of binding
T1 sequence: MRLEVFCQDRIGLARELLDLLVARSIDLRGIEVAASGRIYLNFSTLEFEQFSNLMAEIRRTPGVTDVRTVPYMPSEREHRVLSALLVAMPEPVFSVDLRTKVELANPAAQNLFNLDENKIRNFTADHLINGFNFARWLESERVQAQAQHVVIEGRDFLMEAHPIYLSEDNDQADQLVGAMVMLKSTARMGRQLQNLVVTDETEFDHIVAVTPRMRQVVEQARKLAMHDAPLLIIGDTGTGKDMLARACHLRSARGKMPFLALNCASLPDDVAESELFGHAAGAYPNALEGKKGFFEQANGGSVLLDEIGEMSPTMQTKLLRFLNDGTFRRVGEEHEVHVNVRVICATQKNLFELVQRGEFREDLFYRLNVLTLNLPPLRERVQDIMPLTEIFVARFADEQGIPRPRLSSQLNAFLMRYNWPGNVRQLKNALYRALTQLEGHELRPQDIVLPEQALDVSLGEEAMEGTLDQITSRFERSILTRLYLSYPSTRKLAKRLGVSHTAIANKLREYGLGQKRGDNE

TyrR (Escherichia coli) = assay: cell_activity; conditions: beta-galactosidase reporter, M9 + 2 mM L-tyrosine, 37 C; 29.1 without tyrosine; indirect evidence of binding

tpl promoter/enhancer region (about 480 bp, tpl'-'lac fusion)
activity [1]: 656 Miller units | activity (TyrR (Escherichia coli)): 324 Miller units
